Six sequences from the supplement of paper PMC5998384 can be followed below.

The test system of data set [1] is HeLa Kyoto. The data set is described as follows: thermal stability score vs G1/S (z-score of summed log2 fold changes over temperatures); higher = more thermally stable than in G1/S.
Data set [2] deals with HeLa Kyoto. The data set is described as follows: solubility change mitosis vs G1/S (difference of NP-40 vs SDS log2 ratios) (log2 ratio difference); higher = more soluble in mitosis.
Data set [3] has as its system HeLa Kyoto. The data set is described as follows: melting temperature (median over replicates), in situ; higher = more thermally stable.
Data set [4] has as its system HeLa Kyoto. The data set is described as follows: solubility in G1/S (NP-40 vs SDS abundance) (log2 ratio); higher = more soluble. To be noted: cell cycle stage: G1/S.
Setting [5] is: cell cycle stage: early G1 (4.5 h after nocodazole release).
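Throughout, for melting temperature (median over replicates), in situ: HeLa Kyoto cells synchronized by double thymidine or nocodazole block, proteins quantified by TMT10plex mass spectrometry, three independent biological replicates.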
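Throughout, for solubility change mitosis vs G1/S (difference of NP-40 vs SDS log2 ratios): synchronized HeLa Kyoto cells (double thymidine block for G1/S, nocodazole release for mitosis), protein amounts in NP-40 versus SDS lysates quantified by mass spectrometry, three biological replicates.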
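Throughout, for solubility in G1/S (NP-40 vs SDS abundance): HeLa Kyoto cells arrested at G1/S by double thymidine block, proteins quantified by TMT10plex mass spectrometry in mild NP-40 versus SDS extracts, three biological replicates.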
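Throughout, for thermal stability score vs G1/S (z-score of summed log2 fold changes over temperatures): synchronized HeLa Kyoto cells, proteins quantified by TMT10plex mass spectrometry, three biological replicates, mitosis taken 0.5 h after nocodazole release, G1/S directly after double thymidine block.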

On to “MDFEDDYTHSACRNTYQGFNGMDRDYGPGSYGGMDRDYGHGSYGGQRSMDSYLNQSYGMDNHSGGGGGSRFGPYESYDSRSSLGGRDLYRSGYGFNEPEQSRFGGSYGGRFESSYRNSLDSFGGRNQGGSSWEAPYSRSKLRPGFMEDRGRENYSSYSSFSSPHMKPAPVGSRGRGTPAYPESTFGSRNYDAFGGPSTGRGRGRGHMGDFGSIHRPGIVVDYQNKSTNVTVAAARGIKRKMMQPFNKPSGTFIKKPKLAKPMEKISLSKSPTKTDPKNEEEEKRRIEARREKQRRRREKNSEKYGDGYRMAFTCSFCKFRTFEEKDIELHLESSSHQETLDHIQKQTKFDKVVMEFLHECMVNKFKKTSIRKQQTNNQTEVVKIIEKDVMEGVTVDDHMMKVETVHCSACSVYIPALHSSVQQHLKSPDHIKGKQAYKEQIKRESVLTATSILNNPIVKARYERFVKGENPFEIQDHSQDQQIEGDEEDEEKIDEPIEEEEDEDEEEEAEEVGEVEEVEEVEEVREGGIEGEGNIQGVGEGGEVGVVGEVEGVGEVEEVEELEEETAKEEPADFPVEQPEEN [ZNF326]”, for which the thermal stability score in data set [1] (setting [5]) worked out at 3.18; in data set [1] (cell cycle stage: mitosis), 7.29. Also, the “solubility change mitosis (log2)” value in data set [2] worked out at 0.239. Further, the melting temperature was 47 °C in data set [3] (cell cycle stage: G1/S) and 49.1 °C in data set [3] (cell cycle stage: mitosis). In data set [4], the “solubility in G1/S (log2)” value is -0.456.

Turning to “MDFQHRPGGKTGSGGVASSSESNRDRRERLRQLALETIDINKDPYFMKNHLGSYECKLCLTLHNNEGSYLAHTQGKKHQTNLARRAAKEAKEAPAQPAPEKVKVEVKKFVKIGRPGYKVTKQRDSEMGQQSLLFQIDYPEIAEGIMPRHRFMSAYEQRIEPPDRRWQYLLMAAEPYETIAFKVPSREIDKAEGKFWTHWNRETKQFFLQFHFKMEKPPAPPSLPAGPPGVKRPPPPLMNGLPPRPPLPESLPPPPPGGLPLPPMPPTGPAPSGPPGPPQLPPPAPGVHPPAPVVHPPASGVHPPAPGVHPPAPGVHPPAPGVHPPTSGVHPPAPGVHPPAPGVHPPAPGVHPPAPGVHPPAPGVHPPPSAGVHPQAPGVHPAAPAVHPQAPGVHPPAPGMHPQAPGVHPQPPGVHPSAPGVHPQPPGVHPSNPGVHPPTPMPPMLRPPLPSEGPGNIPPPPPTN [SF3A2]”, the thermal stability score is -1.16 in data set [1] (setting [5]) and -1.41 in data set [1] (cell cycle stage: mitosis). Besides, the “solubility change mitosis (log2)” value in data set [2] stood at 0.322. Further, the melting temperature in data set [3] (cell cycle stage: G1/S) came to 50 °C; in data set [3] (cell cycle stage: mitosis), 50.5 °C. The “solubility in G1/S (log2)” value in data set [4] was 0.0115.

Regarding “MDGEEQQPPHEANVEPVVPSEASEPVPRVLSGDPQNLSDVDAFNLLLEMKLKRRRQRPNLPRTVTQLVAEDGSRVYVVGTAHFSDDSKRDVVKTIREVQPDVVVVELCQYRVSMLKMDESTLLREAQELSLEKLQQAVRQNGLMSGLMQMLLLKVSAHITEQLGMAPGGEFREAFKEASKVPFCKFHLGDRPIPVTFKRAIAALSFWQKVRLAWGLCFLSDPISKDDVERCKQKDLLEQMMAEMIGEFPDLHRTIVSERDVYLTYMLRQAARRLELPRASDAEPRKCVPSVVVGVVGMGHVPGIEKNWSTDLNIQEIMTVPPPSVSGRVSRLAVKAAFFGLLGYSLYWMGRRTASLVLSLPAAQYCLQRVTEARHK [TRABD]”, the thermal stability score in data set [1] (setting [5]) worked out at 0.0844; in data set [1] (cell cycle stage: mitosis), 0.106. In addition, the “solubility change mitosis (log2)” value in data set [2] was 0.0374. Moreover, the melting temperature in data set [3] (cell cycle stage: G1/S) came to 52.2 °C; in data set [3] (cell cycle stage: mitosis) it was 50.2 °C. For the same sequence, in data set [4], the “solubility in G1/S (log2)” value came to 0.184.

As to “MDKQNSQMNASHPETNLPVGYPPQYPPTAFQGPPGYSGYPGPQVSYPPPPAGHSGPGPAGFPVPNQPVYNQPVYNQPVGAAGVPWMPAPQPPLNCPPGLEYLSQIDQILIHQQIELLEVLTGFETNNKYEIKNSFGQRVYFAAEDTDCCTRNCCGPSRPFTLRIIDNMGQEVITLERPLRCSSCCCPCCLQEIEIQAPPGVPIGYVIQTWHPCLPKFTIQNEKREDVLKISGPCVVCSCCGDVDFEIKSLDEQCVVGKISKHWTGILREAFTDADNFGIQFPLDLDVKMKAVMIGACFLIDFMFFESTGSQEQKSGVW [PLSCR1]”, the thermal stability score in data set [1] (setting [5]) is -0.835; in data set [1] (cell cycle stage: mitosis), -1.61. Moreover, the “solubility change mitosis (log2)” value in data set [2] is -0.349. Moreover, the melting temperature in data set [3] (cell cycle stage: G1/S) worked out at 57.7 °C; in data set [3] (cell cycle stage: mitosis) it was 57.2 °C. In addition, the “solubility in G1/S (log2)” value in data set [4] was 0.1.

For “MDLFGDLPEPERSPRPAAGKEAQKGPLLFDDLPPASSTDSGSGGPLLFDDLPPASSGDSGSLATSISQMVKTEGKGAKRKTSEEEKNGSEELVEKKVCKASSVIFGLKGYVAERKGEREEMQDAHVILNDITEECRPPSSLITRVSYFAVFDGHGGIRASKFAAQNLHQNLIRKFPKGDVISVEKTVKRCLLDTFKHTDEEFLKQASSQKPAWKDGSTATCVLAVDNILYIANLGDSRAILCRYNEESQKHAALSLSKEHNPTQYEERMRIQKAGGNVRDGRVLGVLEVSRSIGDGQYKRCGVTSVPDIRRCQLTPNDRFILLACDGLFKVFTPEEAVNFILSCLEDEKIQTREGKSAADARYEAACNRLANKAVQRGSADNVTVMVVRIGH [ILKAP]”, the results for the thermal stability score in data set [1] (setting [5]) and in data set [1] (cell cycle stage: mitosis) were 0.735 and 1.5, respectively. For the same sequence, the “solubility change mitosis (log2)” value in data set [2] was -0.0534. The melting temperature in data set [3] (cell cycle stage: G1/S) is 49.3 °C; in data set [3] (cell cycle stage: mitosis), 49.8 °C. The “solubility in G1/S (log2)” value in data set [4] was determined as 0.239.

Consider “MDLLQFLAFLFVLLLSGMGATGTLRTSLDPSLEIYKKMFEVKRREQLLALKNLAQLNDIHQQYKILDVMLKGLFKVLEDSRTVLTAADVLPDGPFPQDEKLKDAFSHVVENTAFFGDVVLRFPRIVHYYFDHNSNWNLLIRWGISFCNQTGVFNQGPHSPILSLMAQELGISEKDSNFQNPFKIDRTEFIPSTDPFQKALREEEKRRKKEEKRKEIRKGPRISRSQSEL [CCDC134]”, for which the thermal stability score in data set [1] (setting [5]) turned out to be 1.83; in data set [1] (cell cycle stage: mitosis), 1.3. Moreover, the “solubility change mitosis (log2)” value in data set [2] was 0.012. Further, the results for the melting temperature in data set [3] (cell cycle stage: G1/S) and in data set [3] (cell cycle stage: mitosis) were 51.7 °C and 53.3 °C, respectively. In addition, in data set [4], the “solubility in G1/S (log2)” value came out at 0.505.
